The values that follow come from the DeepSol protein solubility set.

This data set in a line: soluble on expression in E. coli; label from the status in PepcDB or PDB records.
For “MSLNLLALPLRSEVELADARTRARHIAELLGLGNQDQVRVATVVSELARNVLLYAGSGQVTFSVRDEAGRSTLLIEVRDQGPGLGHLDEVLGGQYRSKTGMGVGLTGTRRLMDEFDIQTAPGKGTVVRVGKHLPAVVGDAEQRRVAEVLGSSGPRDLLTALSVQNRDLLETLAALNEREERLQVLNQELQDTNRGVVALYAELEEKAERLREANGLKTTFLSYMSHELRTPLHSMLGLARILSGQLDGPLNPEQLKQVQLLQGAAGDLLEMVNGLLDLAKMEAGKTDVDVTTFEVRELFGTLRALFLPLLDNPAVNLIFEDAAGFPPLTTDQRKVEQVLRNFIANALKFTAAGEVRVTAQLLPSGDRVRFTVQDTGIGLSDEEQAQLFQDFSQVGRPGRPAGTGLGLSIARKFTELLGGRVGVQSAPGAGAEFSAELPVVYPGVGAAKRPRALLIDDSEADRYVLTTLLTRAGYEVDEVAYAEPGLEQARSGAYDAVVLDLNLPDRSGLDVLRALRENAGTRSLPVLVVIAAALDAAERAALETLGASVHLKEALYQDEQVLFASLPSGSVHYGEAEGHHHHHH”, the “soluble on expression in E. coli” value is reported as “soluble”. Then “MKMNNTKEYSIRTPSLGNLPPGTTGTCCPPPLVFPLLPLSPPPSPPPSPSSPPRLPPPFPALFPPEPPLPPRFELPPPLFPPPPLPRLPPPLLPPPEEPPREPPPPPPPPEEPPPPASCLRTKSPENGIVSTVK”, with “not soluble”. Then “MEGTPNVPQAHRYELTLAGRPLVLETGKYAKQASGSVLVRYADTVVLATAQASETPVEADFLPLTVEFEERHYAVGKIPGSFMRREGRPGEKAILSARMTDRPIRPLFPKGFRHEVQIIVTVLSADQKNPPDILGPIAASAALMLSDIPWEGPIAAVRVGLIGGSFVLNPTLQELEESQLDLVVAGSKEAILMVEAEAGEVDEETLVQALEFAHKEMQPILELQEAMARELAKPKMAWTPPESLPEEEKEALYRLALERGLSQVLQTASKGERSRALAEFAERLIAEALPKGEDGTPDEGKKPLYESAFDEVVRRELRRLVLEEGKRADGRGPKDLRPIWIEVDVLPRAHGSAVFTRGETQVLGTVTLGTGRDEQILDDLGIDETEKFLVHYNFPPFSTGEVRRLRGVSRREVGHGNLAKRALKAVMPKEEDFPYTIRVVGDVLESNGSSSMATVCAGCLALMDAGVPIRAPVAGVAMGLVWEENRAVILTDILGLEDALGDMDFKVAGTRKGVTALQMDNKVGGLPREVLKEALLQAREARLKILDLMEAVLPAPRPELKPFAPRILSLKVPVEKIGLVIGPGGKNVRALEELGVEVDIEEDGTVRIYSSDLQAALEAKKRIEDLTREAKVGEIYEGTVTRITPFGAFISLFPGTEGLLHISQIAPGRVARVEDHLKVGDVIKVKVHRIDERGKIDLIRPELEGKIPPRRRR”, with “soluble”; and “MGSDKIHHHHHHMSEETTGQLPDVLWHYTTFDTLTAILTSQCLLASDFRDTNDREEILFGFKALRDAFGTHNTWNTTEGFADPVSAAIRENEERIIEDLESSFLHGQMICLSSARDSLSMWRGYGQLTNGGGNGAVAIGFCAADLQTFCGPSDATLQSSTAHIQQNASGGFEGPSNVDYAFRNFPQLSNALSNEDYSADFHLKWTHYLAHWMKHRKHPAFAEEREYRIWGHAYDGNDKGNSQHVVFVGNHDRRKFHLAPAPDDILGPLTHPLAIQKIMVGPKTDFAKVERFTRNVFQSYTHDRPDMCASKIPFK”, with “not soluble”.

For “MIYFIRKKKWLKQLEKGEAMKYAILIGDGMADYPIEKLGNRTILQAARTPAMDSIAARGRAGLAKTVPDSFPPGSDVANMSILGYDPATYYSGRAPLEAASMGVALAADDVAFRCNLITTEHGMIKDYSAGHISSDEAEILIDTLDYELSTENIRFYPGISYRHLIVAGNNLGAETECTPPHDITGEKIDKYLPRGKDGEFFSELIEASKVVLELHPVNLKRVEEGKNPANSIWVWGQGYAPKFTAFMKLYGKKGAVISAVDLLKGIGIYAGLDVIEVHGATGYLDTNYEGKVRAAIEALKTRDLVFVHVEAPDEAGHEGSIEKKLKAVEDFDSRIVAPILEYAENSDEPFTILVLPDHPTPISVKTHTRDPIPFAIYRTDKPETDNVEAFDEESVKNGSMGLVKASDLIGILIKS”, the “soluble on expression in E. coli” value is on record as “not soluble”.

Take “MGSDKIHHHHHHMDAMKYNDLRDFLTLLEQQGELKRITLPVDPHLEITEIADRTLRAGGPALLFENPKGYSMPVLCNLFGTPKRVAMGMGQEDVSALREVGKLLAFLKEPEPPKGFRDLFDKLPQFKQVLNMPTKRLRGAPCQQKIVSGDDVDLNRIPIMTCWPEDAAPLITWGLTVTRGPHKERQNLGIYRQQLIGKNKLIMRWLSHRGGALDYQEWCAAHPGERFPVSVALGADPATILGAVTPVPDTLSEYAFAGLLRGTKTEVVKCISNDLEVPASAEIVLEGYIEQGETAPEGPYGDHTGYYNEVDSFPVFTVTHITQREDAIYHSTYTGRPPDEPAVLGVALNEVFVPILQKQFPEIVDFYLPPEGCSYRLAVVTIKKQYAGHAKRVMMGVWSFLRQFMYTKFVIVCDDDVNARDWNDVIWAITTRMDPARDTVLVENTPIDYLDFASPVSGLGSKMGLDATNKWPGETQREWGRPIKKDPDVVAHIDAIWDELAIFNNGKSA”: the “soluble on expression in E. coli” value was “not soluble”. Then “SMKDHTEGLSDKEQRFVDKLYTGLIQGQRACLAEAITLVESTHSRKKELAQVLLQKVLLYHREQEQSNKGKPLAFRVGLSGPPGAGKSTFIEYFGKMLTERGHKLSVLAVDPSSCTSGGSLLGDKTRMTELSRDMNAYIRPSPTRGTLGGVTRTTNEAILLCEGAGYDIILIETVGVGQSEFAVADMVDMFVLLLPPAGGDELQGIKRGIIEMADLVAVTKSDGDLIVPARRIQAEYVSALKLLRKRSQVWKPKVIRISARSGEGISEMWDKMKDFQDLMLASGELTAKRRKQQKVWMWNLIQESVLEHFRTHPTVREQIPLLEQKVLIGALSPGLAADFLLKAFKSRD”, with “soluble”; and “GPLGSPEFPGMSKVFIATANAGKAHDADIFSVSACNSFTVSCSGDGYLKVWDNKLLDNENPKDKSYSHFVHKSGLHHVDVLQAIERDAFELCLVATTSFSGDLLFYRITREDETKKVIFEKLDLLDSDMKKHSFWALKWGASNDRLLSHRLVATDVKGTTYIWKFHPFADESNSLTLNWSPTLELQGTVESPMTPSQFATSVDISERGLIATGFNNGTVQISELSTLRPLYNFESQHSMINNSNSIRSVKFSPQGSLLAIAHDSNSFGCITLYETEFGERIGSLSVPTHSSQASLGEFAHSSWVMSLSFNDSGETLCSAGWDGKLRFWDVKTKERITTLNMHCDDIEIEEDILAVDEHGDSLAEPGVFDVKFLKKGWRSGMGADLNESLCCVCLDRSIRWFREAGGK”, with “soluble”; and “GSHEHPEFLKAGKEPGLQIWRVEKFDLVPVPTNLYGDFFTGDAYVILKTVQLRNGNLQYDLHYWLGNECSQDESGAAAIFTVQLDDYLNGRAVQHREVQGFESATFLGYFKSGLKYKKGGVASGFKHVETQEKNPLPSKETIEQEKQ”, with “soluble”. Take “MGSDKIHHHHHHMDSNIDVEILSILSEASAPVGAKIIADSLKDRGYDIGERAVRYHLKVLDENSLTKKLGYSGREITEKGIEELEKANISFRIGSVFSQVIEKLYLSDFPSKVLINTAKFEGDYKTIKEMVLRSFEAGYSVGDYLNIKKKGNTVSVETLCSITFDNFLLKNGIIPTPEYGGIVKFEDYEPVNFEGVIDFKSSSIDPLVAFIMQGKTDVIGVIENGEGLVPANFRVIPKSSEKQFETILKKDMLNSVLAYGTENVLGMNLNPEQIGVVLVGGLTPLCVPHESGYTADISAATQLKDISSMEKKTKGFLEAKKKKGKFKVTPVLSKMLSKMQTINYDIEDKKGNVVVNTAKIPIEYKEEAINALKDSYENKLAISDRLKVECDDKFLNAYTICSLTVDGVFLKNKIPVIPYYGGILEVKADKKRFIEAIDYEGTSLDPHEVFFNKADGKNYILAGIRKVPMSASEKLIELNEKLGWNSIIEIGRPNNDICGVRVEKCMFGITTIGGTNPFANIRKNNIPVEMKTLHKSIDYSELTHYDDI”: the “soluble on expression in E. coli” value is “not soluble”.

Consider “MAEEPKGVPLSELSLQQLGELQKNCEQELNFFQESFNALKGLLTRNEKSISALDDVKIATAGHTALIPLSESLYIRAELSDPSKHLVEIGTGYFVELDREKAKAIFDRKKEHITKQVETVEGILKEKRRTRAYISDAFQTKVQSQLATMNTQ”, for which the “soluble on expression in E. coli” value is recorded as “not soluble”.

In the case of “HHHHHHMAKKVNWYVSCSPRSPEKIQPELKVLANFEGSYWKGVKGYKAQEAFAKELAALPQFLGTTYKKEAAFSTRDRVAPMKTYGFVFVDEEGYLRITEAGKMLANNRRPKDVFLKQLVKWQYPSFQHKGKEYPEEEWSINPLVFVLSLLKKVGGLSKLDIAMFCLTATNNNQVDEIAEEIMQFRNEREKIKGQNKKLEFTENYFFKRFEKIYGNVGKIREGKSDSSHKSKIETKMRNARDVADATTRYFRYTGLFVARGNQLVLNPEKSDLIDEIISSSKVVKNYTRVEEFHEYYGNPSLPQFSFETKEQLLDLAHRIRDENTRLAEQLVEHFPNVKVEIQVLEDIYNSLNKKVDVETLKDVIYHAKELQLELKKKKLQADFNDPRQLEEVIDLLEVYHEKKNVIEEKIKARFIANKNTVFEWLTWNGFIILGNALEYKNNFVIDEELQPVTHAAGNQPDMEIIYEDFIVLGEVTTSKGATQFKMESEPVTRHYLNKKKELEKQGVEKELYCLFIAPEINKNTFEEFMKYNIVQNTRIIPLSLKQFNMLLMVQKKLIEKGRRLSSYDIKNLMVSLYRTTIECERKYTQIKAGLEETLNNWVVDKEVRF”, the “soluble on expression in E. coli” value is “soluble”. Regarding “MGVELSLDPPVCPIQANGGVSTHKIINHCDKMLAYKIKSSNNSNYSVNTIFGLIQIGYTADLIITRKPGKPQADKLVIQFAAVEQTCRDGCICQGCICQWTANWRVLWRDDHQAVSC”, the “soluble on expression in E. coli” value is recorded as “not soluble”. Then “MIKTDLNDFAWFVHVVEEGGFAAAGRALDEPKSKLSRRIAQLEERLGVRLIQRTTRQFNVTEVGQTFYEHCKAMLVEAQAAQDAIAALQVEPRGIVKLTCPVTLLHVHIGPMLAKFMARYPDVSLQLEATNRRVDVVGEGVDVAIRVRPRPFEDSDLVMRVLADRGHRLFASPDLIARMGIPSAPAELSHWPGLSLASGKHIHRWELYGPQGARAEVHFTPRMITTDMLALREAAMAGVGLVQLPVLMVKEQLAAGELVAVLEEWEPRREVIHAVFPSRRGLLPSVRALVDFLTEEYARMVEE”, with “not soluble”. For “MMSTSDRSRLPLVYACSGCSSVAQLANAFAVRLDRSGQAEMSCISGVGGRVPALTRIAQSGRPILAIDGCQLACVKACLEGVGVVASRHLVLNRIGATKRQHGECTEAEEAATWQSIKLALSEILPVSESVVSN”, the “soluble on expression in E. coli” value is “soluble”.

As to “MGRAMGDSFTFIFNPAADKGRAADKTALIERSLAHFEVASLETTRFAGHAAEIARAAAGEGSTLIACGGDGTLNEVVNAVAGQPVKVGVLPVGSANDFLKTFNPSAKEHEVRIRGFAGATSRKVDLGKVEFGGGESRYFVNSIGIGFTGRIASTVKSVKWLRGELSYAWALVSVLLGYSAVKMHITLDTVEGKIELDEPVFAFSVSNGRVEGGKFRIAPEADPFDGLLDVCILKAVSKWRVPGYVLKYLKGSQIHDPNVIYCKARSVEVFLSVSEAMHMDGEVIEKVGGAIAITAEPLAVEMLYEP”, the “soluble on expression in E. coli” value was “not soluble”. The value for “RGFQHGIRHNVEQFGMGTSAISFSTWRTSKEYGGYPKDRYIELTPADCDYLVKLNPDLIKGAAYYTNQWSYDVQYEDRTHSTPTKAVSGEYGNMVKTHLIEGRFLSTSDDAMKRKVIVLCEQTADVLFGESISPIGKYVNLSQIPFLVVGVCKGEQGQFSPNYIPFATYSGIFAKGFSLDCTLFMNCPSVRTEENVERLKVLLNRQLAFRKGYDPTDMEVPYVDAPVTDIKMMDKIFNGMD” was “not soluble”.
